Measurements: US20060024793A1

Biological target: thrombin (manufactured by Enzyme Research Laboratories)
Assay: cell-based or functional assay

Substance | Secondary rate constant (+hep), thrombin inhibition in the presence of heparin [M⁻¹ s⁻¹] | Secondary rate constant (-hep), thrombin inhibition in the absence of heparin [M⁻¹ s⁻¹]
ATIII DG44 peak (1) fraction (recombinant human antithrombin III produced by pKAN-ATIII AFDG44, CHO/DG44 cell) (from UniProt P01008 33-464) | 8.7e+06 | 7700
ATIII DG44 peak (2) fraction (recombinant human antithrombin III produced by pKAN-ATIII AFDG44, CHO/DG44 cell) (from UniProt P01008 33-464) | 2e+07 | 8600
ATIII MS705 peak (2) fraction (recombinant human antithrombin III produced by pKAN-ATIII AFMS705, FUT8 gene-double-knockout CHO/DG44 cell) (from UniProt P01008 33-464) | 2.5e+07 | 
ATIII MS705 peak (3) fraction (recombinant human antithrombin III produced by pKAN-ATIII AFMS705, FUT8 gene-double-knockout CHO/DG44 cell) (from UniProt P01008 33-464) | 2.6e+07 | 8800
Neuart (human plasma-derived antithrombin III preparation, manufactured by Mitsubishi Pharma Corporation) (from UniProt P01008 33-464) | 2.3e+07 | 8200
